T1: HTRA4, P83105
T1 sequence (P83105 378-476, limits assumed, looked up): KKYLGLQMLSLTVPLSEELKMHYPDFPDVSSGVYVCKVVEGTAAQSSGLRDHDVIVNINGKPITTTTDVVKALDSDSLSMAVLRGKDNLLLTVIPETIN

T2: PDZRN3_1, Q9UPQ7
T2 sequence (Q9UPQ7 244-349, limits assumed, looked up): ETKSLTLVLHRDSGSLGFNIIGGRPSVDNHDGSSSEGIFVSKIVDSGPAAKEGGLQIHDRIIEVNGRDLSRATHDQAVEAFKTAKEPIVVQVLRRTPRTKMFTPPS

T3: APBA2_2, Q99767
T3 sequence (Q99767 654-744, limits assumed, looked up): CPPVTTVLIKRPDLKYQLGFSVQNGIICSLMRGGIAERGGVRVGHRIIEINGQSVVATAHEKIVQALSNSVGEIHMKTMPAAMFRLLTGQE

T4: LIN7C, Q9NUP9
T4 sequence (Q9NUP9 88-185, limits assumed, looked up): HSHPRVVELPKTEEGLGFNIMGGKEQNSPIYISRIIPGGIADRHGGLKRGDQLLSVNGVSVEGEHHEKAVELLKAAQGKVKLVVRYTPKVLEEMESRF

T5: LNX2_2, Q8N448
T5 sequence (Q8N448 334-432, limits assumed, looked up): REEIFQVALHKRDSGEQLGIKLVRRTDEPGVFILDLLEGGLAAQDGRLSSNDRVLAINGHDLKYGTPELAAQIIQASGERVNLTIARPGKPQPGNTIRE

T6: ARHGAP21, Q5T5U3
T6 sequence (Q5T5U3 45-169, limits assumed, looked up): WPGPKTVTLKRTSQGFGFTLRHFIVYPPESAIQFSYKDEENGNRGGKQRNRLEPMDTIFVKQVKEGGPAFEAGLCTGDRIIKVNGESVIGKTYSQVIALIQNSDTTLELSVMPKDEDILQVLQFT


Biological target: T1, HTRA4, P83105
Assay: holdup assay
Design: key: below the threshold = too weak to quantify, mostly under pKd 3.1 to 4
Details: plain residues with an end cap or a label only (N-terminal biotin on a linker: ado-ado)

Binder | pKd
GSSSKEGTSV [RRBP1, Q9P2E9] | 3.9
ADRDHASDQL [CTBP1, Q13363] | 3.73

Biological target: FRMPD4, Q14CM0
Sequence (Q14CM0 67-160): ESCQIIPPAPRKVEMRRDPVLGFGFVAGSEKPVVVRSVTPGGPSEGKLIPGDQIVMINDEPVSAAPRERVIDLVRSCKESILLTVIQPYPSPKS
Assay: holdup assay
Design: key: below the threshold = too weak to quantify, mostly under pKd 3.1 to 4
Details: plain residues with an end cap or a label only (N-terminal biotin on a linker: ado-ado)

Binder | pKd
GSSSKEGTSV [RRBP1, Q9P2E9] | 3.71
ADRDHASDQL [CTBP1, Q13363] | 3.93

Biological target: Inadl_4, Q8NI35
Sequence (Q8NI35 547-651): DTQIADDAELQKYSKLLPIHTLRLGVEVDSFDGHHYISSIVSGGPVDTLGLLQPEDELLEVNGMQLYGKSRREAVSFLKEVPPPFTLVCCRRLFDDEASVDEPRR
Assay: holdup assay
Design: key: below the threshold = too weak to quantify, mostly under pKd 3.1 to 4
Details: plain residues with an end cap or a label only (N-terminal biotin on a linker: ado-ado)

Binder | pKd
GSSSKEGTSV [RRBP1, Q9P2E9] | below the threshold
ADRDHASDQL [CTBP1, Q13363] | below the threshold

Biological target: IL16_3, Q14005
Sequence (Q14005 1107-1207): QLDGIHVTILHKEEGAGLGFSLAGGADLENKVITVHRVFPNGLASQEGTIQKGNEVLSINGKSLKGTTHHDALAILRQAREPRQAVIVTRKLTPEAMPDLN
Assay: holdup assay
Design: key: below the threshold = too weak to quantify, mostly under pKd 3.1 to 4
Details: plain residues with an end cap or a label only (N-terminal biotin on a linker: ado-ado)

Binder | pKd
GSSSKEGTSV [RRBP1, Q9P2E9] | below the threshold
ADRDHASDQL [CTBP1, Q13363] | below the threshold

Biological target: DLG1_2, Q12959
Sequence (Q12959 314-412): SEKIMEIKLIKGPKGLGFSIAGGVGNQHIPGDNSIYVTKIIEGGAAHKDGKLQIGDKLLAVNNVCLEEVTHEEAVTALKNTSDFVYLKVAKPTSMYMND
Assay: holdup assay
Design: key: below the threshold = too weak to quantify, mostly under pKd 3.1 to 4
Details: plain residues with an end cap or a label only (N-terminal biotin on a linker: ado-ado)

Binder | pKd
GSSSKEGTSV [RRBP1, Q9P2E9] | 4.45
ADRDHASDQL [CTBP1, Q13363] | below the threshold

Biological target: TJP1_2, Q07157
Sequence (Q07157 181-274): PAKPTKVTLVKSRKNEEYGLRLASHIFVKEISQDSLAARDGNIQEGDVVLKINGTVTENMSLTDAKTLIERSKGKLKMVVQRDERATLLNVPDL
Assay: holdup assay
Design: key: below the threshold = too weak to quantify, mostly under pKd 3.1 to 4
Details: plain residues with an end cap or a label only (N-terminal biotin on a linker: ado-ado)

Binder | pKd
GSSSKEGTSV [RRBP1, Q9P2E9] | below the threshold
ADRDHASDQL [CTBP1, Q13363] | below the threshold

Biological target: MAGI2_2, Q86UL8
Sequence (Q86UL8 410-522): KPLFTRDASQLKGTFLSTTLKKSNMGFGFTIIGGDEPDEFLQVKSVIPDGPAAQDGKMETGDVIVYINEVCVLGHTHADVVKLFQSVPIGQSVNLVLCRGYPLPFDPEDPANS
Assay: holdup assay
Design: key: below the threshold = too weak to quantify, mostly under pKd 3.1 to 4
Details: plain residues with an end cap or a label only (N-terminal biotin on a linker: ado-ado)

Binder | pKd
GSSSKEGTSV [RRBP1, Q9P2E9] | 4
ADRDHASDQL [CTBP1, Q13363] | below the threshold

Biological target: T2, PDZRN3_1, Q9UPQ7
Assay: holdup assay
Design: key: below the threshold = too weak to quantify, mostly under pKd 3.1 to 4
Details: plain residues with an end cap or a label only (N-terminal biotin on a linker: ado-ado)

Binder | pKd
GSSSKEGTSV [RRBP1, Q9P2E9] | 4.33
ADRDHASDQL [CTBP1, Q13363] | below the threshold

Biological target: DLG4_1, P78352
Sequence (P78352 62-152): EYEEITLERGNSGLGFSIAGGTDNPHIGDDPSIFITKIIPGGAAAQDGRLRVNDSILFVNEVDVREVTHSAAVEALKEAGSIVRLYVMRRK
Assay: holdup assay
Design: key: below the threshold = too weak to quantify, mostly under pKd 3.1 to 4
Details: plain residues with an end cap or a label only (N-terminal biotin on a linker: ado-ado)

Binder | pKd
GSSSKEGTSV [RRBP1, Q9P2E9] | 4.12
ADRDHASDQL [CTBP1, Q13363] | below the threshold

Biological target: FRMPD3, Q5JV73
Sequence (Q5JV73 12-100): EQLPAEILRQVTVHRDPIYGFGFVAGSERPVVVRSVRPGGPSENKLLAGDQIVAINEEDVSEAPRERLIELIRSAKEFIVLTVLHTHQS
Assay: holdup assay
Design: key: below the threshold = too weak to quantify, mostly under pKd 3.1 to 4
Details: plain residues with an end cap or a label only (N-terminal biotin on a linker: ado-ado)

Binder | pKd
GSSSKEGTSV [RRBP1, Q9P2E9] | below the threshold
ADRDHASDQL [CTBP1, Q13363] | below the threshold

Biological target: T3, APBA2_2, Q99767
Assay: holdup assay
Design: key: below the threshold = too weak to quantify, mostly under pKd 3.1 to 4
Details: plain residues with an end cap or a label only (N-terminal biotin on a linker: ado-ado)

Binder | pKd
GSSSKEGTSV [RRBP1, Q9P2E9] | below the threshold
ADRDHASDQL [CTBP1, Q13363] | below the threshold

Biological target: GOPC, Q9HD26
Assay: holdup assay
Design: key: below the threshold = too weak to quantify, mostly under pKd 3.1 to 4
Details: plain residues with an end cap or a label only (N-terminal biotin on a linker: ado-ado)

Binder | pKd
GSSSKEGTSV [RRBP1, Q9P2E9] | 3.62
ADRDHASDQL [CTBP1, Q13363] | below the threshold

Biological target: LNX1_1, Q8TBB1
Sequence (Q8TBB1 261-371): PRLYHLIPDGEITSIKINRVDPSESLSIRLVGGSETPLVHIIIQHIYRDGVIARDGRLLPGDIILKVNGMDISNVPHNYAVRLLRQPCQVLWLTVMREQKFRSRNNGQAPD
Assay: holdup assay
Design: key: below the threshold = too weak to quantify, mostly under pKd 3.1 to 4
Details: plain residues with an end cap or a label only (N-terminal biotin on a linker: ado-ado)

Binder | pKd
GSSSKEGTSV [RRBP1, Q9P2E9] | below the threshold
ADRDHASDQL [CTBP1, Q13363] | below the threshold

Biological target: GRIP2_7, Q9C0E4
Sequence (Q9C0E4 934-1023): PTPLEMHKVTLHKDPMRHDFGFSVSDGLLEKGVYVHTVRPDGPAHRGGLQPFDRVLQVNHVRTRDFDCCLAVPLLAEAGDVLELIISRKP
Assay: holdup assay
Design: key: below the threshold = too weak to quantify, mostly under pKd 3.1 to 4
Details: plain residues with an end cap or a label only (N-terminal biotin on a linker: ado-ado)

Binder | pKd
GSSSKEGTSV [RRBP1, Q9P2E9] | below the threshold
ADRDHASDQL [CTBP1, Q13363] | below the threshold

Biological target: DLG2_3, Q15700
Assay: holdup assay
Design: key: below the threshold = too weak to quantify, mostly under pKd 3.1 to 4
Details: plain residues with an end cap or a label only (N-terminal biotin on a linker: ado-ado)

Binder | pKd
GSSSKEGTSV [RRBP1, Q9P2E9] | 3.9
ADRDHASDQL [CTBP1, Q13363] | below the threshold

Biological target: MAGI1_1, Q96QZ7
Sequence (Q96QZ7 1-106): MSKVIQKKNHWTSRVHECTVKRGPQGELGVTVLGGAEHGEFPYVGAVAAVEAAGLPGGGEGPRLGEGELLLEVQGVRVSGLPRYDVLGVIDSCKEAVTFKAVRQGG
Assay: holdup assay
Design: key: below the threshold = too weak to quantify, mostly under pKd 3.1 to 4
Details: plain residues with an end cap or a label only (N-terminal biotin on a linker: ado-ado)

Binder | pKd
GSSSKEGTSV [RRBP1, Q9P2E9] | below the threshold
ADRDHASDQL [CTBP1, Q13363] | below the threshold

Biological target: Inadl_5, Q8NI35
Sequence (Q8NI35 673-780): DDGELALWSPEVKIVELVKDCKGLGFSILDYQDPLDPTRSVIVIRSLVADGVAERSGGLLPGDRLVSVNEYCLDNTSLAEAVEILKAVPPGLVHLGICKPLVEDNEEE
Assay: holdup assay
Design: key: below the threshold = too weak to quantify, mostly under pKd 3.1 to 4
Details: plain residues with an end cap or a label only (N-terminal biotin on a linker: ado-ado)

Binder | pKd
GSSSKEGTSV [RRBP1, Q9P2E9] | below the threshold
ADRDHASDQL [CTBP1, Q13363] | below the threshold

Biological target: IL16_4, Q14005
Sequence (Q14005 1229-1329): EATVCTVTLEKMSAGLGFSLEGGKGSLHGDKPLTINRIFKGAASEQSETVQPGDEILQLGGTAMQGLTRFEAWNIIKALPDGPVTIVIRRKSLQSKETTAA
Assay: holdup assay
Design: key: below the threshold = too weak to quantify, mostly under pKd 3.1 to 4
Details: plain residues with an end cap or a label only (N-terminal biotin on a linker: ado-ado)

Binder | pKd
GSSSKEGTSV [RRBP1, Q9P2E9] | 3.7
ADRDHASDQL [CTBP1, Q13363] | below the threshold

Biological target: HTRA1, Q92743
Sequence (Q92743 360-477): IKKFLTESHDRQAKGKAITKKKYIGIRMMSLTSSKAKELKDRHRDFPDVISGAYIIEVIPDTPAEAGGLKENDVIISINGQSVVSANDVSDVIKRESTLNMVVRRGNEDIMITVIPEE
Assay: holdup assay
Design: key: below the threshold = too weak to quantify, mostly under pKd 3.1 to 4
Details: plain residues with an end cap or a label only (N-terminal biotin on a linker: ado-ado)

Binder | pKd
GSSSKEGTSV [RRBP1, Q9P2E9] | 3.84
ADRDHASDQL [CTBP1, Q13363] | below the threshold

Biological target: PDLIM1, O00151
Sequence (O00151 1-87): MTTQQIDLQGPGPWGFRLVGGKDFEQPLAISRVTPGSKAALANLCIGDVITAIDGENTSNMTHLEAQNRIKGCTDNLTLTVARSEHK
Assay: holdup assay
Design: key: below the threshold = too weak to quantify, mostly under pKd 3.1 to 4
Details: plain residues with an end cap or a label only (N-terminal biotin on a linker: ado-ado)

Binder | pKd
GSSSKEGTSV [RRBP1, Q9P2E9] | below the threshold
ADRDHASDQL [CTBP1, Q13363] | below the threshold

Biological target: MAGI2_5, Q86UL8
Sequence (Q86UL8 915-1017): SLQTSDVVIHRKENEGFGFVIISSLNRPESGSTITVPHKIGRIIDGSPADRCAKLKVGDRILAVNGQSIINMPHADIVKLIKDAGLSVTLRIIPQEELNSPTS
Assay: holdup assay
Design: key: below the threshold = too weak to quantify, mostly under pKd 3.1 to 4
Details: plain residues with an end cap or a label only (N-terminal biotin on a linker: ado-ado)

Binder | pKd
GSSSKEGTSV [RRBP1, Q9P2E9] | below the threshold
ADRDHASDQL [CTBP1, Q13363] | below the threshold

Biological target: DLG4_2, P78352
Sequence (P78352 155-259): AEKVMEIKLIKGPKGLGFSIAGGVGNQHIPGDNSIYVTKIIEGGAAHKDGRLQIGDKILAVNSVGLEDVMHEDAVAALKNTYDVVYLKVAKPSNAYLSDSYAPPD
Assay: holdup assay
Design: key: below the threshold = too weak to quantify, mostly under pKd 3.1 to 4
Details: plain residues with an end cap or a label only (N-terminal biotin on a linker: ado-ado)

Binder | pKd
GSSSKEGTSV [RRBP1, Q9P2E9] | 4.27
ADRDHASDQL [CTBP1, Q13363] | below the threshold

Biological target: DLG4_3, P78352
Sequence (P78352 306-403): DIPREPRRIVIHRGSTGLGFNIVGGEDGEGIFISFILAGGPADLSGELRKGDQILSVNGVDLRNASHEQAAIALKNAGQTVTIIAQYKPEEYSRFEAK
Assay: holdup assay
Design: key: below the threshold = too weak to quantify, mostly under pKd 3.1 to 4
Details: plain residues with an end cap or a label only (N-terminal biotin on a linker: ado-ado)

Binder | pKd
GSSSKEGTSV [RRBP1, Q9P2E9] | 3.64
ADRDHASDQL [CTBP1, Q13363] | below the threshold

Biological target: T4, LIN7C, Q9NUP9
Assay: holdup assay
Design: key: below the threshold = too weak to quantify, mostly under pKd 3.1 to 4
Details: plain residues with an end cap or a label only (N-terminal biotin on a linker: ado-ado)

Binder | pKd
GSSSKEGTSV [RRBP1, Q9P2E9] | below the threshold
ADRDHASDQL [CTBP1, Q13363] | 3.96

Biological target: GRASP, Q7Z6J2
Sequence (Q7Z6J2 96-193): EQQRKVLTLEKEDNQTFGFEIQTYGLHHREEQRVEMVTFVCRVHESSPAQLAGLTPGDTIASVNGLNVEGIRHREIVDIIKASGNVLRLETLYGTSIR
Assay: holdup assay
Design: key: below the threshold = too weak to quantify, mostly under pKd 3.1 to 4
Details: plain residues with an end cap or a label only (N-terminal biotin on a linker: ado-ado)

Binder | pKd
GSSSKEGTSV [RRBP1, Q9P2E9] | 3.49
ADRDHASDQL [CTBP1, Q13363] | below the threshold

Biological target: T5, LNX2_2, Q8N448
Assay: holdup assay
Design: key: below the threshold = too weak to quantify, mostly under pKd 3.1 to 4
Details: plain residues with an end cap or a label only (N-terminal biotin on a linker: ado-ado)

Binder | pKd
GSSSKEGTSV [RRBP1, Q9P2E9] | 4.15
ADRDHASDQL [CTBP1, Q13363] | below the threshold

Biological target: LAP2, Q96RT1
Sequence (Q96RT1 other isoform, or with tags, fused parts or gaps): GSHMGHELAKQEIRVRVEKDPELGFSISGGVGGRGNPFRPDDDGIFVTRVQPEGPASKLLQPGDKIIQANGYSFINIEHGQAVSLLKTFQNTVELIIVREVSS
Assay: holdup assay
Design: key: below the threshold = too weak to quantify, mostly under pKd 3.1 to 4
Details: plain residues with an end cap or a label only (N-terminal biotin on a linker: ado-ado)

Binder | pKd
GSSSKEGTSV [RRBP1, Q9P2E9] | 3.65
ADRDHASDQL [CTBP1, Q13363] | below the threshold

Biological target: MAGI2_3, Q86UL8
Sequence (Q86UL8 600-682): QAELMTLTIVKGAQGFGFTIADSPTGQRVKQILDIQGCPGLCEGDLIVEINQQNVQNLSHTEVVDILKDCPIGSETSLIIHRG
Assay: holdup assay
Design: key: below the threshold = too weak to quantify, mostly under pKd 3.1 to 4
Details: plain residues with an end cap or a label only (N-terminal biotin on a linker: ado-ado)

Binder | pKd
GSSSKEGTSV [RRBP1, Q9P2E9] | 3.54
ADRDHASDQL [CTBP1, Q13363] | below the threshold

Biological target: T6, ARHGAP21, Q5T5U3
Assay: holdup assay
Design: key: below the threshold = too weak to quantify, mostly under pKd 3.1 to 4
Details: plain residues with an end cap or a label only (N-terminal biotin on a linker: ado-ado)

Binder | pKd
GSSSKEGTSV [RRBP1, Q9P2E9] | below the threshold
ADRDHASDQL [CTBP1, Q13363] | 4.08

Biological target: GORASP1, Q9BQQ3
Sequence (Q9BQQ3 1-208): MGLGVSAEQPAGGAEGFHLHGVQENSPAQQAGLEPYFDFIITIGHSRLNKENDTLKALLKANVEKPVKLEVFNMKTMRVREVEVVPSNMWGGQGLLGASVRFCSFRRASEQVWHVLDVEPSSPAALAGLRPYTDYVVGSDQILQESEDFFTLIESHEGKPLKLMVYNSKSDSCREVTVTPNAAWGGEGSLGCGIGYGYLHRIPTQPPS
Assay: holdup assay
Design: key: below the threshold = too weak to quantify, mostly under pKd 3.1 to 4
Details: plain residues with an end cap or a label only (N-terminal biotin on a linker: ado-ado)

Binder | pKd
GSSSKEGTSV [RRBP1, Q9P2E9] | below the threshold
ADRDHASDQL [CTBP1, Q13363] | below the threshold

Biological target: LDB3, O75112
Sequence (O75112 1-94): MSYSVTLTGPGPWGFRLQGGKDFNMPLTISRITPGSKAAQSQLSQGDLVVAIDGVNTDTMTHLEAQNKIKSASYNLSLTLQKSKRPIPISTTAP
Assay: holdup assay
Design: key: below the threshold = too weak to quantify, mostly under pKd 3.1 to 4
Details: plain residues with an end cap or a label only (N-terminal biotin on a linker: ado-ado)

Binder | pKd
GSSSKEGTSV [RRBP1, Q9P2E9] | below the threshold
ADRDHASDQL [CTBP1, Q13363] | below the threshold

Biological target: Inadl_8, Q8NI35
Sequence (Q8NI35 1425-1530): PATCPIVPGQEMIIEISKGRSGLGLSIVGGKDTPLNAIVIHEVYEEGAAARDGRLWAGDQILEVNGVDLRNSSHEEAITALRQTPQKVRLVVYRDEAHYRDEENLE
Assay: holdup assay
Design: key: below the threshold = too weak to quantify, mostly under pKd 3.1 to 4
Details: plain residues with an end cap or a label only (N-terminal biotin on a linker: ado-ado)

Binder | pKd
GSSSKEGTSV [RRBP1, Q9P2E9] | 3.91
ADRDHASDQL [CTBP1, Q13363] | below the threshold

Biological target: GRIP2_4, Q9C0E4
Sequence (Q9C0E4 446-548): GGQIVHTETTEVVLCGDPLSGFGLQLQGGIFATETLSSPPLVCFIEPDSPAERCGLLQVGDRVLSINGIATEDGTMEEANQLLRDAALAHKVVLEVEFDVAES
Assay: holdup assay
Design: key: below the threshold = too weak to quantify, mostly under pKd 3.1 to 4
Details: plain residues with an end cap or a label only (N-terminal biotin on a linker: ado-ado)

Binder | pKd
GSSSKEGTSV [RRBP1, Q9P2E9] | below the threshold
ADRDHASDQL [CTBP1, Q13363] | below the threshold

Source: paper PMC9482650, “Quantitative fragmentomics allow affinity mapping of interactomes” (Nature Communications, 2022)
